Patent publication US20130071400A1, “LINGO binding molecules and Pharmaceutical Use Thereof” (NOVARTIS AG, priority 2006, published 2013)

B1: IgG4 4784: monoclonal human anti-LINGO-1 IgG4 antibody; VL SEQ ID NO: 4, VH SEQ ID NO: 5 (antibody, V domains shown)
VH: QVQLKESGPALVKPTQTLTLTCTFSGFSLSSSGVGVGWIRQPPGKALEWLAHIGSDDDKYYSTSLKTRLTISKDTSKNQVVLTMTNMDPVDTATYYCARNQQYGDGYPGYFDYWGQGTLVTVSS
VL: DIELTQPPSVSVAPGQTARISCSGDNIGNYYVYWYQQKPGQAPVLVIYEDTNRPSGIPERFSGSNSGNTATLTISGTQAEDEADYYCQSYDNLHEQVFGGGTKLTVLG
modifications: IgG4; 4784 VH; 4784 VL
B2: IgG4 4785: monoclonal human anti-LINGO-1 IgG4 antibody; VL SEQ ID NO: 6, VH SEQ ID NO: 7 (antibody, V domains shown)
VH: QVQLQQSGPGLVKPSQTLSLTCAISGDSVSDNSAAWSWIRQSPGRGLEWLGLIYLRSKWDNDYAVSVKSRITINPDTSKNQFSLQLNSVTPEDTAVYYCARTGRADEFDVWGQGTLVTVSS
VL: DIVLTQPPSVSGAPGQRVTISCSGSSSNIGNNYVSWYQQLPGTAPKLLISRNSKRPSGVPDRFSGSKSGTSASLAITGLQSEDEADYYCSTYDTFSIVFGGGTKLTVLG
modifications: IgG4; 4785 VH; 4785 VL

Test system: binding of LINGO-1 to NgR
Experiment: AP-LINGO-1 binding assay (AP-LINGO-1 binding to NgR:SH-SY5Y cells)
Set-up: species or system rat
Details: 2 μM Fab, 1 nM AP-LINGO-1; normalized to control Fab 3207; p<0.01 (FIG. 1)
Description: NgR:SH-SY5Y cells in suspension are incubated with either 1 nM AP or AP-LINGO-1 in the absence or presence of 2 μM of the indicated anti-LINGO-1 Fab or anti-hen lysozyme Fab 3207. Bound AP activity on the cells is measured as absorbance at 405 nm after a 30 min incubation with 1-Step™ PNPP. The specific binding of AP-LINGO-1 is calculated as the difference between the total amount of AP-LINGO-1 binding and the amount of binding with AP alone. The mean percentage inhibition of specific binding (n=3, ±STD) is calculated as the percentile difference between the amount of specific binding of AP-LINGO-1 in the presence of Fab 3207 and the presence of an anti-LINGO-1 Fab.
The PCR product is cleaved with XhoI and XbaI and inserted into the respective sites of the vector APtag-5-NHIS (SEQ ID NO: 26) to generate APtag-5-NHIS-solrLINGO-1. The predicted protein product is the majority of the rat LINGO-1 ectodomain fused at the N-terminus to residues 23-511 of human placental alkaline phosphatase via a 3 amino acid residue linker. […] AP activity of the concentrated supernatant is measured using 1-Step™ PNPP (Pierce) as change in absorbance at 405 nm over time and transformed to a concentration using the following equation (applies for a 96 well plate format with 200 μl PNPP/well): […]

Chain of binding of LINGO-1 to NgR (as listed by the source): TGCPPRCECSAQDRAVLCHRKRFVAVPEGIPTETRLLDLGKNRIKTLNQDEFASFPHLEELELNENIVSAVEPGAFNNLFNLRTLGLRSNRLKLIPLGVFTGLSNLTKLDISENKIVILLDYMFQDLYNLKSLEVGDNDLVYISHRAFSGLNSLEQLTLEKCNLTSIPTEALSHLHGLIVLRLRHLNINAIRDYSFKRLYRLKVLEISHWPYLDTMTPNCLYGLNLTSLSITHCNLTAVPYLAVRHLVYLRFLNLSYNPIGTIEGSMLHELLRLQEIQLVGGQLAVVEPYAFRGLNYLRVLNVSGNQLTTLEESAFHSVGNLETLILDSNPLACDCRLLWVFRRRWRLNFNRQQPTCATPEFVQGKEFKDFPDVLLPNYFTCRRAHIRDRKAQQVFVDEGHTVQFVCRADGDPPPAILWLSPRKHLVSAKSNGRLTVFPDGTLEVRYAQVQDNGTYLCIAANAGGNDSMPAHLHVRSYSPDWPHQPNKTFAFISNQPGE

Molecule | inhibition of specific AP-LINGO-1 binding to NgR:SH-SY5Y cells
B1 | significantly inhibit
B2 | significantly inhibit
